Data as given in the nanobody polyreactivity screen of Harvey et al. (2022).

Experiment: yeast display, Sf9 membrane polyspecificity reagent, FACS + sequencing; frameworks hold sequencing errors
How it was run: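 Galactose-induced (36–48 hours) yeast carrying a synthetic nanobody display library were exposed to 10% biotinylated, detergent-solubilized Sf9 membrane reagent at 4 °C for 1 hour. FACS followed streptavidin microbead enrichment, using low and high (top ~1%) gates for expression (anti-HA) and reagent binding (streptavidin). Colony PCR, MiSeq 2 × 250 sequencing and CDR-length filtering followed. Labels for polyreactivity reflect the gate of origin.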

Sequence | polyreactivity (PSR sort gate)
QVQLVESGGGLVQAGGSLRLSCAASGRIFPYYGMGWYRHAPGKERELVAAITWDSGSTYYADSVKGRFTISRDNAKNTVYLQMNSLKPEDTAVYYCAAPISFYSPAEYYYWGQGTQVTVSS | low polyreactivity
QVQLVESGGGLVQAGGSLRLSCAASGRIFPYYTMGWYRQAPGKERELVAAISSSGGSTYYADSVKGRFTISRDNAKNTVYLQMNSLKPEDTAVYYCNIRRHSLYGGTTTRYDYWGQGTQVTVSS | high polyreactivity
QVQLVESGGGLVQAGGSLRLSCAASGRIFPYYVMGWYRQAPGKERELVASISSGGNTNYADSVKGRFTISRDNAKNTVYLQMNSLKPEDTAVYYCAARWRRKGYYWARFDYWGQGTQVTVSS | high polyreactivity
QVQLVESGGGLVQAGGSLRLSCAASGRIFQDNAMGWYRQTPGKERELVAAISRRGGSTYYADSVKGRFTISRDNAKYTVYLQMNSMKPEDTAVYYCAAKWSVEEDYWGQGTQVTVSS | high polyreactivity
QVQLVESGGGLVQAGGSLRLSCAASGRIFQGNAMGWYRQATGKERELVAAITTSGGSTYYADSVKGRFTISRDNAKNTVYLQMNSLKPEDTAVYYCNVDPRKRSYDYWGQGTQVTVSS | high polyreactivity
QVQLVESGGGLVQAGGSLRLSCAASGRIFQGYAKGWYRQAPGKEREFVAAITASGGTTYYADSVKGRFTISRDNAKNTVYLQMNSLKPEDTAVYYCAKYRYTVAGYNYWGQGTQVTVSS | high polyreactivity
QVQLVESGGGLVQAGGSLRLSCAASGRIFQGYAMGWYRPAPGKERELLAAITVRGGTTYYADSVKGRFTISRDNAKNTVYLQMNSLKPEDTAVYYCNAAKLIHGYQSVYPGSNSRYYYWGQGTQVTVSS | low polyreactivity
QVQLVESGGGLVQAGGSLRLSCAASGRIFQNYAAMGRYRPPPGKERELVASIRATGGSTYYADSVKGRFTISRDNAKNTVYLQMNSLKPEDTAVYYCAARFAAKSLPAYDYWGQGTQVTVSS | low polyreactivity
QVQLVESGGGLVQAGGSLRLSCAASGRIFQPYAMGWYRQAPGKERELVAAITRSGGSTYYADSVKGRFTISRDNAMNTVDLQLNSLKPEDTAVSYCASKVLYPYEYWGQGTQVTVSS | low polyreactivity
QVQLVESGGGLVQAGGSLRLSCAASGRIFQRYVMGWYRQAPGKERELVASISWRGGSTYYADSVKGRFTISRDNAKNTVYLQMNSLKPEDTAVYYCAARRYTDYVRVAREMDYWGQGTQVSVSS | high polyreactivity
QVQLVESGGGLVQAGGSLRLSCAASGRIFQTYAMGWYRQAPGKERELVAAISSRGRTYYADSVKGRFTISRDNAKNTVYLQMNSLKPGDTAVYYCAARDWSHRPRGYDYWGQGTKVTVSS | high polyreactivity
QVQLVESGGGLVQAGGSLRLSCAASGRIFQTYAMGWYRQAPGNERELVARIRLSGGSTYYADSVKGRFTISRDNAKNTVYLQMNRLKPEATAVYYCAALYSRARFTDPYYYWGQGTQVTVSS | high polyreactivity
QVQLVESGGGLVQAGGSLRLSCAASGRIFQVNDKGFYIQAPGKETELVASITYSGGSTYYADSVKGRFTISRDNAKITVYLQMNSLKPEDTAVYYCNKQNYVWVLVIYYYWGQGTQVTVSS | low polyreactivity
QVQLVESGGGLVQAGGSLRLSCAASGRIFQWYAMGWYRQAPGKERELVATISDGDSTNYADSVKGRFTISRDNAKNTVYFQMNSLKPEDTAVYYCAALDIYYDSYYWYDYWGQGTQVTVSS | high polyreactivity
QVQLVESGGGLVQAGGSLRLSCAASGRIFQYNAMGWYRQAPGKERELVAAITGGGSTYYADSVKGRFTISRDNAKNTVYLQMNSLKPEDTAVYYCNKAWSCSWLLTYGYWGQGTQVTVSS | high polyreactivity
QVQLVESGGGLVQAGGSLRLSCAASGRIFQYNAMGWYRQAPGKESELVAAIRRGGGSTYYADSVKGRFTISRDNAKNTVYLQMNSLKPEDTAVYYCAARRKRVSFYPEYDYWGQGTQVTVSS | low polyreactivity
QVQLVESGGGLVQAGGSLRLSCAASGRIFQYYAMGWYRQAPGKERELVAAISRGGSTNYADSVKGRFTISRDNAKNTVYCQMNSLIPVDTAVYYCAGDEYRYYFFRPGIGYDYWGQGTQVTVSS | low polyreactivity
QVQLVESGGGLVQAGGSLRLSCAASGRIFQYYVMGWYRQAPGKERELVAAITSGGGTKYADSVKGRFTISRDNAKNTVYLQMNSLKPEDTAVYYCAAAWFDQYSRYDYWGQGTQVTVSS | low polyreactivity
QVQLVESGGGLVQAGGSLRLSCAASGRIFRANTMGWYRQAPGKERELVATSSKNGGRTYYADSVKGRFTISRDNAKNTVYLQMNSLKPEDTAVYYCNAEWRGWRFLEYGSYIYQSGYWGQGTQVTVSS | high polyreactivity
QVQLVESGGGLVQAGGSLRLSCAASGRIFRAYAMGWYRQAPGKERELVAAITSGVSTNYADSVKGRFTISRDNAKNTVYLQMNSLKAEDTAVYYCAADIYVIYEYWGQGTQVTVSS | low polyreactivity
QVQLVESGGGLVQAGGSLRLSCAASGRIFRDNAMGWYRQAPGKERELVAAITSSGGSTNYADSVKGRFTISRDNAKNTVYLQMNSLKPEDTAVYYCNTDRLGAARYDYWGQGTQVTVSS | low polyreactivity
QVQLVESGGGLVQAGGSLRLSCAASGRIFRDYAMGWYRQAPGKERELVAAIRSVGNTNYADSVKGRFTISRDNAKNTVYLQMNSLKPEDTAVYYCNRQGSYFSRQAIGDFRFDYWGQGTQVTVSS | low polyreactivity

Sequence | polyreactivity (PSR sort gate)
QVQLVESGGGLVQAGGSLRLSCAASGRIFRDYAMGWYRQAPVKERELVAAITRSGDTTYYADSVKGRFTISRDNAKNTVYLQMNSLKPEDTAVYYCAARYVSRYYVYRGFEYWGQGTQVTVSS | high polyreactivity
QVQLVESGGGLVQAGGSLRLSCAASGRIFRFYAMGWSRQAPGKEREMVAVISTGGRTNYADSVKGRFTISRDNGKNTVYLQMNSLKPVDSAVYYCAAEYTNIGRYDGWNYNYWGQGTQVTVSS | high polyreactivity
QVQLVESGGGLVQAGGSLRLSCAASGRIFRGNAMGWYRQAPGKERELVAASTSSGDSTFYADSVKGRFTISRDNAKNTVYLQMNSLKPEDTAVYYCAANVRYQRTSGYYYWGQGTQVTVSS | high polyreactivity
QVQLVESGGGLVQAGGSLRLSCAASGRIFRGNAMGWYRQPPGKERELGATITRSGARTYYADSVKGRFTISRDNAKNTVYLQMNSLKPEDTAVYYCAARRVRSYAYDYWGQGTQVTVSS | high polyreactivity
QVQLVESGGGLVQAGGSLRLSCAASGRIFRGNTMGWYRQAPGKERELVAAITRGGSTSYADSVKGRFTISRDNAKNTVYLQMNSLKPEDTAVFYCATRTHGEGTRRDSWGQGTQVTVSS | low polyreactivity
QVQLVESGGGLVQAGGSLRLSCAASGRIFRGYAMGWYIQAPGKEREFVADITRSGGSTYYADSVKGRFTISRDNAKNTVYLQMNSLKPEDTAVYYCAREWYQYSPYHRFDYWGQGTQVTVSS | high polyreactivity
QVQLVESGGGLVQAGGSLRLSCAASGRIFRGYAMGWYRQAPGKERELVAAIDTDTGITYYADSVKGRFTISRDNAKNTVYLQMNSLKPEDTAVYYCAAETYYAVSTGYDFDYWGQGTQVTVSS | high polyreactivity
QVQLVESGGGLVQAGGSLRLSCAASGRIFRGYAMGWYRQAPGKERELVAAISRSGGSTYYADSVKGRFTISRDNAKNTVYLQMNSLKPEDTAVYYCAAVPYYVWYYYPIGGYWGQGTQVTVSS | high polyreactivity
QVQLVESGGGLVQAGGSLRLSCAASGRIFRGYAMGWYRQAPGKERELVADISSGASTNYADSVKGRFTISRDNAKNTVYLQMNSLKPEDTAVYYCAAQHSVLAYFEYDYWGQGTQVTVSS | low polyreactivity
QVQLVESGGGLVQAGGSLRLSCAASGRIFRGYAMGWYRQAPGKERELVATITARGGNTYYADSVKGRFTISRDNAKNTVYLQMNSLKPEETAVYYCAATFYRRYVDLGYWGQGTQVTVSS | high polyreactivity
QVQLVESGGGLVQAGGSLRLSCAASGRIFRGYTMGWYRQAPGKEREFVAAITANGGRTYYADSVKGRFTISRDTAKNTVYLKMNRLKPEDTAVYYCNARTYTYRGSFDYWVQGTQVTVSS | high polyreactivity
QVQLVESGGGLVQAGGSLRLSCAASGRIFRHNTMGWYRQAPGKERELDAGITASGGDTYYADSVKGRFTISRDNAKNTVYLQMNSLKPEDTAVYYCAKRGQSYTYRRYDYWGQGTQVTVSS | low polyreactivity
QVQLVESGGGLVQAGGSLRLSCAASGRIFRINAMGWYRQAPGKERELVASITSRAGSTYYADSVKGRFTISRDNAKNTVYLQMNSLKPEDTAVYYCAAASRRGYYYWGQGTQVTVSS | high polyreactivity
QVQLVESGGGLVQAGGSLRLSCAASGRIFRINDMGWYIQAPGKERELVAAITWSGGSTYYADSVKGRFTISRDNAKNPVYLPMNSLKPEDTAGYYCAADQAYFWGYYYWGQGTQVTVSS | low polyreactivity
QVQLVESGGGLVQAGGSLRLSCAASGRIFRKYAMGWYRQAPGKERELVAAINWSGGSTYYADSVKGRFTISRDNAKNTVYLQMNSLKPEDTAVYYCAAYVRRVGYYYWGQGTQVTVSS | high polyreactivity
QVQLVESGGGLVQAGGSLRLSCAASGRIFRKYTMGWYRQAPGKERELVAAITGTGGSTYYADSVKGRFTISRDNAKNTVYLQMNSLKPEDTAVYYCAAVARFRYSDMYYWGQGTQVTVSS | high polyreactivity
QVQLVESGGGLVQAGGSLRLSCAASGRIFRLYAMGWYRQAPGKERELVASISKSGGSTYYADSVKGRFTISRDNAKNTVYLQMNSLKPADSAVYYCAADYRTHGGYEGTFDYWGQGTQVTVSS | low polyreactivity
QVQLVESGGGLVQAGGSLRLSCAASGRIFRNNAMGGDRQAPGKERELVASITSSGGSTYYADSVKGRFTISRDNAKNTVYLQMNSLKPEDTAVYYCAAYTRSGYGYKLYYYWGQGTQVNVSS | high polyreactivity
QVQLVESGGGLVQAGGSLRLSCAASGRIFRNYAMGWYRQAPGKERELVPAITRGGSTYYAVSVKGRFSISRDNAKNTVYLQMNSLKPEDNAVYYCNKAWPYSHPVQYHRSRSYDYWGQGTQVTVSS | high polyreactivity
QVQLVESGGGLVQAGGSLRLSCAASGRIFRPNTMGWYRQAPGKERELVAAISRSGGSTYYADSVKGRFTISRDNAKNTVYLQMNSLKPEDTAVDYCAKRYGGIVGVGANKYEYWGQGTQVTVAS | high polyreactivity
QVQLVESGGGLVQAGGSLRLSCAASGRIFRPNTMGWYRQAPGKERELVASISLSAGSTYYADSVKGRFTISRDNAKNTVFLQMNSLKPEDTAVYYCNATYLSWYRYKYNYWGQGTQVTVSS | low polyreactivity
